The results in this text go back to patent publication US20120082667A1 (IMMUNAS PHARMA, published 2012).

Test [1] addresses T1, A beta oligomer prepared from synthetic A beta1-40 (HCl form), 0.1 mg/ml in PBS, incubated at 37 degrees C … (UniProt P05067 672-711).
T1 construct: domain: A beta1-40; non-fibrous assembly of A beta1-40; also called A beta1-40 oligomer; A beta40 oligomer
The experiment in a line: dot blot: peptide spotted on nitrocellulose (0.1 micro g/dot), hybridoma culture supernatant, HRP anti-mouse IgG, ECL. How it is done:
(§1) Dot blot analysis was carried out for hybridomas that gave positive result for primary screening. […] The membrane was blocked with Tris Buffer containing 5% low-fat milk and 0.05% Tween-20, and reacted with hybridoma culture supernatants and detected with chemiluminescence kit (ECL) after reacting with HRP-conjugated anti-mouse IgG antibody.

For test [2], the target named is T2, A beta monomer prepared from synthetic A beta1-40 (TFA form), 0.1 mg/ml in PBS (UniProt P05067 672-711).
T2 construct: domain: A beta1-40; also called A beta1-40 monomer; A beta40 monomer
The description is as above. On the procedure:
as §1

Test [3] has as its target T3, synthesized A beta1-42 (UniProt P05067 672-713).
T3 construct: domain: A beta1-42; spotted in the dot blot as the second of the two types of oligomers; also called A beta42 oligomer
The test is described as above. How it is done: as §1

The target of test [4] is T2, A beta monomer prepared from synthetic …. The experiment in a line: competitive ELISA: antibody pre-incubated with soluble A beta1-40 monomer (inhibitor, varied), then binding to immobilised A beta1-40 oligomer read as OD450. A general note: In an ELISA, binding on a coated surface is turned into a signal by an enzyme label.
Test [5] has as its target T1, A beta oligomer prepared from synthetic …. As to the kind of experiment: competitive ELISA: antibody pre-incubated with soluble A beta1-40 oligomer (inhibitor, varied), then binding to immobilised A beta1-40 oligomer read as OD450.
The target of test [6] is T3, synthesized A beta1-42. As to the kind of experiment: dot blot, synthesized A beta1-42 spotted, hybridoma supernatant. How it is done:
as §1

Test [7] addresses T2, A beta monomer prepared from synthetic …. The experiment in a line: competitive ELISA: antibody pre-incubated with soluble A beta1-40 monomer (inhibitor, varied), then binding to immobilised A beta1-40 oligomer read as OD450. The source holds these as a separate data set.
Test [8] addresses T1, A beta oligomer prepared from synthetic …. The experiment in a line: competitive ELISA: antibody pre-incubated with soluble A beta1-40 oligomer (inhibitor, varied), then binding to immobilised A beta1-40 oligomer read as OD450. This is another data set of the same source.

Where a chain is given by its changes, count along the chain named.

B1: AL-221 antibody (antibody, IgG2b, V domains shown)
VH: QVTLKESGPGILKPSQTLSLTCSFSGFSLSTSGMGVGWIRQPSGKGLEWLAHIWWDDDKYYNPSLKSQLTISKDTSRNQVFLKITSVDTADTATYYCARRSLSRDYFDYWGQGTTLTVSS
VL: DVLMTQTPLSLPVSLGDQASISCRSSQSIVHSNGNTYLEWYLQKPGQSPKLLIYKVSNRFSGVPDRFSGSGSGTDFTLKISRVEAEDLGVYYCFQGSHVPLTFGAGTKLELK
Take B1: the binding result (in test [1]; in test [2]; in the test with synthesized A beta1-42 [3]) was “binds” each time.

B2: AL-231 antibody (antibody, IgG2a, V domains shown)
VH: B1 VH with S101A, S103N, R104W, Y106V
VL: B1 VL
For B2, the binding result (with synthesized A beta1-42 [3]; in test [4]; in test [5]) was “binds” in each case.

B3: AL-205 antibody (antibody, IgG2a, V domains shown)
VH: EVKLEESGGGLVQPGGSMKLSCVASGFTFSNYWMNWVRQSPEKGLEWVAEIRLKSNNYATHYAESVKGRFTISRDDSKSSVYLQMNNLRAEDTGIYYCTRGTRVWLRREAWFAYWGQGTLVTVSA
VL: not shown
As to B3, in the test with synthesized A beta1-42 [6], the binding result is “binds”.

B4: AL-233 antibody (antibody, IgG2b, V domains shown)
VH: DVQLQESGPDLVKPSQSLSLTCTVTGYSITSGYSWHWIRQFPGNKLEWMGYIHYSGSTNYNPSLKSRISITRDTSKNQFFLQLNSVTTEDTATYYCARRGYDGYYSWFAYWGQGTLVTVSA
VL: SQAVVTQESALTTSPGETVTLTCRSSTGAVTTSNYANWVQEKPDHLFTGLIGGTNNRAPGVPARFSGSLIGDKAALTITGAQTEDEAIYFCALWYSNHWVFGGGTKLTVLG
As to B4, the binding result (with synthesized A beta1-42 [3]; in test [4]; in test [5]) was “binds” each time.

B5: AL-209 antibody (antibody, IgG2a, V domains shown)
VH: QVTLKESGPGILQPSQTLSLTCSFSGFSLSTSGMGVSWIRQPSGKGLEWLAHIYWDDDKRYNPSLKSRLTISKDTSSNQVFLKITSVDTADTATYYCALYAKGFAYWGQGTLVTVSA
VL: DIQMTQSPSSLSASLGGKVTITCKASQDINKYIAWYQHKPGKGPRLLIHYTSTLQPGIPSRFSGSGSGRDYSFSISNLEPEDIATYYCLQYDNLYTFGGGTKLEIK
With B5, the binding result (with synthesized A beta1-42 [3]; in test [7]; in test [8]) was “binds” each time.

B6: AL-204 antibody (antibody, V domains shown)
VH: EVQLVESGGGLVKPGGSLKLSCAASGFTFSDYYMYWVRQTPEKRLEWVATISDGGSYTYYPDSVKGRFTISRDNAKNNLYLQMSSLKSEDTAMYYCARAKYYRYDGGGAYAMDYWGQGTSVTVSS
VL: NIMMTQSPSSLAVSAGEKVTMSCKSSQSVLYSSNQKNYLAWYQQKPGQSPKLLIYWASTRESGVPDRFTGSGSGTDFTLTISSVQAEDLAVYYCHQYLSSYTFGGGTKLEIK
Turning to B6, the binding result with synthesized A beta1-42 [6] is given as “binds”.
